Data published in patent US20120124686.

Target: T1, phiC31 integrase (phiC31o, mammalian codon-optimized) (Streptomyces phage phiC31) (UniProt Q9T221)
T1 sequence: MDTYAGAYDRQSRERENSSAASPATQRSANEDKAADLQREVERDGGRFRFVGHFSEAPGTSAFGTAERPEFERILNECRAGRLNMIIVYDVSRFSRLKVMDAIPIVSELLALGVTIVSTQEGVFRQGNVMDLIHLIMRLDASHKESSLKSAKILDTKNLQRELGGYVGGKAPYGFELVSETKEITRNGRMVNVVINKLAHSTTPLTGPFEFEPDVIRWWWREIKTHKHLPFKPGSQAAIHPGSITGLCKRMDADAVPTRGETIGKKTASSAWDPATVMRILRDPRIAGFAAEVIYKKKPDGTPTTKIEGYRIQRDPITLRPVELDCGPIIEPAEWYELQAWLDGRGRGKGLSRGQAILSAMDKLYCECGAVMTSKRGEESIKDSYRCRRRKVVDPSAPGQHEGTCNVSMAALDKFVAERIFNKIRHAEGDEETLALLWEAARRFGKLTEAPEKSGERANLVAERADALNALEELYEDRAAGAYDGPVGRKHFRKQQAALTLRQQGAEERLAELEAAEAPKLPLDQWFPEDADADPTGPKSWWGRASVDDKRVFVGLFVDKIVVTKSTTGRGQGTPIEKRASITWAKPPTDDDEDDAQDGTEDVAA
Assay: cell_activity

Substance | activity (% of F0 with site-specific integration) (attB plasmid pattB-pCA-GFP into H11P3NVphi, 10/64, 0/32 without integrase mRNA) | activity (% of F0 with site-specific integration) (H11P(NVphi), mixed background, pooled 8/102, partner attB, mouse zygote injection)
full-length phiC31 attB (pTA-attB) | 15.6 | 
full-length phiC31 attP (pTA-attP) |  | 7.8
